Assay results taken from patent US20230414780A1.

Tests used:
[1] = target: murine TfR expressed by murine neuroblastoma Neuro-2a cells (mouse) (UniProt Q62351); experiment: competition with C5-Alexa680 (100 nM) on living Neuro-2a cells, 3 hrs at 37 C, flow cytometry; Ki/app, mean ± SD
[2] = target: murine TfR expressed by murine neuroblastoma Neuro-2a cells (mouse) (UniProt Q62351); experiment: cell-based or functional assay

Sequence of murine TfR expressed by murine neuroblastoma Neuro-2a cells (mouse) (Q62351 whole entry): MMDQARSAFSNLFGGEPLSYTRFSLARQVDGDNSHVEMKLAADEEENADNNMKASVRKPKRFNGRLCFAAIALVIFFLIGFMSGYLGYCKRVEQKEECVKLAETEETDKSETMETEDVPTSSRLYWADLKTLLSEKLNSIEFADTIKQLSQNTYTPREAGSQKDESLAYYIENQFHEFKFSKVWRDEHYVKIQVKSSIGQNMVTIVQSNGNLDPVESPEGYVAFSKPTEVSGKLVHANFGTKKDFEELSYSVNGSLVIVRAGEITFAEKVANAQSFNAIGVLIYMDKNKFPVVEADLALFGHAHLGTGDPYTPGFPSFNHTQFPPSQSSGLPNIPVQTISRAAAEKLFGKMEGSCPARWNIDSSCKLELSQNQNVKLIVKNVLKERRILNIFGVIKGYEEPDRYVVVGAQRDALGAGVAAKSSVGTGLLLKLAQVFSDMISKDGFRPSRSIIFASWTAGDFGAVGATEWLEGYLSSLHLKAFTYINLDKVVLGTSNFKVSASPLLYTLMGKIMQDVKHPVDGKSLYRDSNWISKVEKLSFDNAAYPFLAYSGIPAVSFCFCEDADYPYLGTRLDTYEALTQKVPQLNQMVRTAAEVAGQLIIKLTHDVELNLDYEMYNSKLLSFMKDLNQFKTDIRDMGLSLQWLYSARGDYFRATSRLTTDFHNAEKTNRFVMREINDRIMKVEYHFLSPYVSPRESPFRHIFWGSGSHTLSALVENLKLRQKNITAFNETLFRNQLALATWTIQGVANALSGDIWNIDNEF

- Ki [1]: 494 nM
- IC50 of mSOD1 mRNA downregulation, free uptake on Neuro-2a cells [2]: 8.7 nM
B1: C5-hFc-siSOD1m-5'VP (Fc fusion, part only; not given: Fc knob and hole arms, part only)
chain, part: EVQLVESGGGVVQPGGSLKLSCVASGTDFSINFIRWYRQAPGKQREFVAGFTATGNTNYADSMKGRFTISRDNTKNAVYLQIDSLKPEDTAVYYCYMLDKWGQGTQVTVSS
